These results are taken from the nanobody polyreactivity screen of Harvey et al. (2022).

The data set in a line: yeast display, Sf9 membrane polyspecificity reagent, FACS + sequencing; frameworks hold sequencing errors. The method in brief: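 Nanobodies came from a synthetic yeast display library in Saccharomyces cerevisiae BJ5465, induced with galactose for 36–48 hours and stained for 1 hour at 4 °C with 10% biotinylated, detergent-solubilized Sf9 membrane reagent. Cells were enriched on streptavidin microbeads and then FACS-sorted, with low and high (top ~1%) gates set on anti-HA fluorescence for expression and streptavidin fluorescence for reagent binding. Each polyreactivity label reflects the gate a clone came from. Genes were amplified by colony PCR, sequenced by MiSeq 2 × 250 and filtered by CDR length.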
On to “QVQLVESGGGLVQAGGILRLSSAASGSTFFNYAMGWYRQAPGKERELVAAISSSGGRTYYADSVKGRFTISRDNAKNTVYLQMNSLKPEDTSVYYCAASGRKHGMNYWGQGTQVTVSS”, for which the “polyreactivity (PSR sort gate)” value is “high polyreactivity”.

Consider “QVQLEESGGGLVQAGGRIRLSCAASGRIFHGYAMGWYRQAPGKERELVAAISWRGDSTYYADSVKGRFTNSRDNAKNTVYLQMNSLKPEDTAVYYCNDLGENYQFNYWGLGTQVTVSS”, for which the “polyreactivity (PSR sort gate)” value was “low polyreactivity”.

For “QVQHVESGGGIVQAGGSLRLSCAASVRTIPYNAMGRYRQAPGKERELVAAISTGGSTNYADSVKGRFTISRDNAKNTVYLQMNSLKPEDTAVYYCNTRYRWARNWAYYYWGQGTQVTVSS”, the “polyreactivity (PSR sort gate)” value is given as “high polyreactivity”.

Take “QVQLVESGGGLVQAGGSLRLSCAASGITFTFNAMGWYRQAPGKERELVAAITWSGGSTFYADSVKGRFTFSRDNAKNTVYLQMNSLKPEDTAVYYCARDTELYVRWLDYWVQGTQVTVSS”: the “polyreactivity (PSR sort gate)” value is “low polyreactivity”.

Consider “QVQLQESGGGLVQAGGSLLSCAASGTISYYREMGWYRQAPGKERELDAGIGVGTITSYADSVKGRFTISRDNAKNTVYLQMNSLKPEDTAVYYCAAHIDGNDSHAYWGQGTQVTVSC”, for which the “polyreactivity (PSR sort gate)” value is “low polyreactivity”.

Regarding “QVQLVESGGGLVEAGGSLRLSCAASGSTFRWYAMGWYRQAPGKERELVAAISRSGASTYDSDSVKGRFTISRDNAKNTVYLQMNSLKPEDTAVYYCAAKQRTKGDYWRQGTQVTVSS”, the “polyreactivity (PSR sort gate)” value was “high polyreactivity”.

Take “QVQLVESGGGLVQAGGSLRLSCAASGIIFYAYVMGWYRQAPGKERELVAAITVSGGSTYYADSVKGRFTISRDNAKNTVYLQMNSLKPEDTAVYYCAADWNFYQRTFDSWGQGTQVTVSS”: the “polyreactivity (PSR sort gate)” value is recorded as “low polyreactivity”.

In the case of “QVQLVESGGGLVQAGGSLRLSCAASGITFEPYDMGWYRQAPGKERELVAAISTTGGRTYYADSVKGRFTISRDNAKNTVYLQMNSLKPEDTAVYYCAARYTTRRRYDYWGQGTQVTVSS”, the “polyreactivity (PSR sort gate)” value is “high polyreactivity”.

As to “QVQLVESGGGLVQAGGSLRLSCAASGRIFRKYAMGWYRQAPGKERELVAAISGSGGSTTYADSVKGRFTISRDNAKNTVYLQMNSLKPEDTAVYYCAARGYSLYGYPYYYWGQGTQVSVSS”, the “polyreactivity (PSR sort gate)” value is recorded as “high polyreactivity”.

Consider “QVQLVESGGGLVQAGGSLRLSCAASGRIIVNNAMGWYRQAPGKERELVAAITRRGGSTYYADSVKGRFTISRDNAKNTVYLQMNSLKPEDTAVYYCARSNQRTVYVASDYWGQGTQVTVSS”, for which the “polyreactivity (PSR sort gate)” value is given as “high polyreactivity”.

In the case of “QDQLVESGGGLVQAGCSLRLSCAASGFIFPNYAMGWYRQAPGKERELVAAISTDGSTNYADSVKGRFTISRDNAKTTVYLQMNSLKTEDTAVYYCAKYGRVKPQRYDYDYWGQGTQVTVSS”, the “polyreactivity (PSR sort gate)” value was “high polyreactivity”.

With “QVQLVESGGGLVQAGGSLRLSCAASGRILPSNAMGWYRQSPGKERELVATISSSGGDTYYADSVKGRFTISRDNAKNTVYLQMNSLKPEDTAGYYCAADSTWEGGYKYEYWGQGTQVTVSS”, the “polyreactivity (PSR sort gate)” value is on record as “low polyreactivity”.

With “QVQLVESVGGLVQAGGSLRLSCAASGFIFYGYAMGWYRQAPGKERELVAAISRSGTSTYYADSVKGRFTISRDNAKNTVYLQMNSLKPEDTAVYYCAADYVGWKWGSRGAIYKHYYWGQGTQVTVSS”, the “polyreactivity (PSR sort gate)” value is given as “high polyreactivity”.

Regarding “QVHLVESGGGLVQAGGSLRLSFAASGRTFSTNAMGWYRQAPGKERELVAAISSTGGRTYYADSVKGRFTISRDNAKNTVYLQMNSLKPEDTAVYYCNTKLKGKGEGFDYWGQGTQVTVSS”, the “polyreactivity (PSR sort gate)” value is “high polyreactivity”.

With “QVQLVESGGGLVQAGGSLRLICDASGIYYRNAMGWYRQAPGKEREMVAAISWSGGSTYYADSVKGRFTISRDNAKNTVYLQMNSLNPEDTAVYYCAAVGGRYPSNVLGYYYWGQGTQVTVSS”, the “polyreactivity (PSR sort gate)” value is reported as “high polyreactivity”.

Regarding “QVQLVESGGGLVQAGGSLRLSCAASGRTCAAYAMGWYRQAPGKERELVAAISIGGSTNYADSVKGRFTISRDNAKNTVYLQLNSLKPEDTAVYYCAAGTWAVSKYLEWLEFYYWGQGTQVTVSS”, the “polyreactivity (PSR sort gate)” value is recorded as “high polyreactivity”.

Take “QVQLVESGGGLVQAGGSLRLSCAASGYILYGNTMGWYRQAPGKERELVAAISGGGSTNYADSVKGRFTISRDNAKNTVYLQMNSLKPEETAVYYCAVDVKIGTDFIGVVIPGDYWGQGTQVTVSS”: the “polyreactivity (PSR sort gate)” value is reported as “low polyreactivity”.

“QVQLVESGGGLVQAGGSLRLSCAASGSSLNLNAMGWYRQAPGKERELVAAIRWGGGSTYYADSVKGRFTISRDNAKNTDYLQMNSLKPEDTAVYYCAKAYHLGLGYRFDYWGQGTQVTVSS”: the “polyreactivity (PSR sort gate)” value is given as “high polyreactivity”.

“QVQLVESGGGLVQAGGSLRLSCAASGSTLRAYAMGWSRQAPGKERELVAAINVSSGGTYYADSVKGRFTISRDNAKNTVYLQMNSLKPEDTAVYYCAARARWAGLRYTRYYYWGQGTQVTVSS”: the “polyreactivity (PSR sort gate)” value is given as “high polyreactivity”.

For the sequence “QVQLVESGGGLVQAGGSLRLSCAASGSTFSTNAMGWYRPAPAKEREFGAAITWSGDSTDYADSVKGRFTISRDNAKNTVYLHMNSLKPEDTAVYYCSAGPFLESYRGYSEMDYWGQGTQVTVSS”, the “polyreactivity (PSR sort gate)” value is recorded as “low polyreactivity”.

Regarding “QVQLVESGGGLVQAGGSLRLSCAASGRTFRGYSMGWYRQAPGKERELVAAISTNGGSTRYADSVKGRFTISRDNSKNTVYLQMNSLKPEDTAVYYCARRDYWGQGTQVTVSS”, the “polyreactivity (PSR sort gate)” value is on record as “high polyreactivity”.

Take “QVQLVESGGGLVQAGGSLRLSCSACGSIFFYYAMGWYRQAPGKERELVAAITFTGGSTYYADSVKGRFTISRDNAKNTVYLRMNSLKPEDTAVYYCAADWYYGDEYEYWGQGTQVTVSS”: the “polyreactivity (PSR sort gate)” value is on record as “high polyreactivity”.

Regarding “QVQLVESGGGLVQAGGSLRLSCAASGSTFKYYAMGWYRQAPGKERELVASITRTGSSTYYADSVKGRFTISRDNAKNTVYLQMNSRKPEDTAVYYCNTGPHSVWWHYGYDYWGQGTQVTVSS”, the “polyreactivity (PSR sort gate)” value is recorded as “high polyreactivity”.

In the case of “QVQLVESGGGLVQAGGSLRLSCAASGFTFSPYTMGSYRQAPGKERELVAGITSRGGSTYYADSVKGRFTISRDTAKNTVYLQMNILKPEDSAVYYCAARSPGYYRIVWYDYWGQGTQVTVSS”, the “polyreactivity (PSR sort gate)” value is “high polyreactivity”.

“QVQLVESGGGLVQAGGSLRLSCAASGSTFKQYAMGLYRQAPGTERELVAVITWRGGRTYYADSVKGRFTISRDYAKNTVYLQMNSLKPEDTAVYYCAADYFSFIPGYDYWGQGTQVTVSS”: the “polyreactivity (PSR sort gate)” value is “high polyreactivity”.

With “QVQLVESGGGLVQAGGSLRLSCAASGSTFDFYAMAWYRQAPGKERELVADITSGGRTSYADSVKGRFTISRDNAKNTVYLQMNSLKPEDTAVYYCAALTRWYAWYDYWGQGTQVTVSS”, the “polyreactivity (PSR sort gate)” value is “high polyreactivity”.

Take “QVQLVESGGGLVQAGGSLRLSCAASGRTFVPYAMGWYRQAPGKERELVAAISSGGDTNYADSVKGRFTISRDNAKNTVYLQMNSLKPEDSAVYYCAKDLTQIYYGDDYWGQGTQVTVSS”: the “polyreactivity (PSR sort gate)” value is “low polyreactivity”.

For “QVQLVESGGGLVQEGGSLRLSCAASGLIFPSYARGWYRPAPGKERELVAGINTGGSTNYADSVKGRFTISRDNAKNTVSLQMNSQKPEDTAVYYCAKDNNYYWYVSPRDYWGLGTQVTVSS”, the “polyreactivity (PSR sort gate)” value is “low polyreactivity”.

As for “QVQLVESGGGLVQAGGSLRLSCAASGSTFSTNALGWYREAPGKELELVDDISSSSGRTYYADSVKGRFTISRDNAKNTVYLQMNSLKPEDTAVYYCAAANQGYRSGRKGVQRFDYWGQGTQVTVSS”, the “polyreactivity (PSR sort gate)” value is “high polyreactivity”.

Take “QVQLVESGGGLVQAGGSLRLSCAASGSTFSYYAMVWYRQAPGKERELVADISSGGSTNYADSVKGRFTISRDNAKNTVYLQMNSLKPEDTAVYYCNRRYSYYDGFDYWGQGTQVTVSS”: the “polyreactivity (PSR sort gate)” value was “low polyreactivity”.

For “QVQLVESGGGLVQAGGSLRLSCAASGRTFVSNAMGWYRQAPGKERELVAAISVRGGRTYYADSVKGRFTISRDNAKNTVYLQMNSLKPEDTAVYYCNAVYRTYEYYWGQGTQVTVSS”, the “polyreactivity (PSR sort gate)” value was “high polyreactivity”.

Take “QLQLVESGGGLVQAGGSLRLSCAASGRIFQRYAMGWYRQAPGKERELVAGITSSGGSTYYADSVKGRFTISRDNAKNTVYLQMNSLKPEDTAVYYCNAGGELRYYGYRAGGTTRSYDYWGQGTQVTVSS”: the “polyreactivity (PSR sort gate)” value is given as “low polyreactivity”.

Take “QVQLVESGGGLVQAGGSLRLSCAASGNTFEYYAMGWYRQAPGKERELVAAITSGGSTNYADSVKGRFTISRDNAKNTVYYQMNSLKPEDTAVYYCAADQWGYEYDYWGQGTQVTVSS”: the “polyreactivity (PSR sort gate)” value is recorded as “low polyreactivity”.

On to “QVQLVESGGGLVQAGGSLRLSCAPSGITLDSNAMGWYRQARGKERELVAAINWSTGSTYYADSVKGRFTISRDNAKNTVYLQMNSLKPEDTAVYYCAVDYRYGYFVYVHYEYWGQGTQETVSS”, for which the “polyreactivity (PSR sort gate)” value is “high polyreactivity”.

With “PVQLVESGGGLVQAGGSLRLSCAAAGLTFPPNAMGWYRQAPGKERELVADSGGSTNYADSVKGRFTISRDNAKNTVYLQMNSLNPEDTAVYYCAVPPYSDGQWDDYWGQGTQVTVSS”, the “polyreactivity (PSR sort gate)” value is listed as “low polyreactivity”.

On to “QVQLVESAGGLVQAGGSLRLSCAASGFIFSRNAMGWYRQAPGKERELVAAISGTGGRTYYADSVKGRFTLSRDNAKNTVYLQMNSLKTEDTAVYYCAADKRIGGFGYWGQGTQVTVSS”, for which the “polyreactivity (PSR sort gate)” value was “high polyreactivity”.

“QVQLVESGGGLVQAGGSLRLSCAASGIIFAWYAMGWYRQAPGKERELVAGISQSGGRTYYADSVKGRFTISRDNAKNSVYLQMNSLKPEDTAVYYCAAQWYYSPYVSGDYWGQGTQVTVSS”: the “polyreactivity (PSR sort gate)” value is “high polyreactivity”.

Consider “QVQLVESGGGLVQAGGSLRLSCAATGLIFAYNTMGWYRQAPGKERELVAGITSSGSTYYADSVKGRFTISRDNAKNTVYVQMNSLKPEDTAVYYCAAEWDDGRSWYWYYLVGFEYWGQGTQVTVSS”, for which the “polyreactivity (PSR sort gate)” value is “high polyreactivity”.

As to “QVQLVESGGGLVQAGGSLRLSCAASGSTFQYYAMGGYIQAPGKQRQLVAAISSGGSTYYADSVKGRFTISRDNAMNTVYLQMNSLKPEDTAVYYCAADGYYSVSRYTSYKYYYWGQGTQVTVSS”, the “polyreactivity (PSR sort gate)” value is on record as “high polyreactivity”.

As for “QVQLVESGGGLVQAGGSLSLSCAASGSIFRWYAMGWYRQAPGKERELVALISWRGGSTYADSVKGRFTISRDNAKNTVYLQMNSLKPEDTADYYCNARPGSSYWYDAQWGEYGYWGQGTQVTVSS”, the “polyreactivity (PSR sort gate)” value is on record as “high polyreactivity”.

For the sequence “QVQHVESGGGLVQAGGSLRLSCAASGSIFSFNAMGWYRQAPGKERELVASISRNGGSTYYADSVKGRFTISRDNAKNTVYLQMNSLKPEDTAVYYCAVKVRNRRYGYWGQGTQVTVSS”, the “polyreactivity (PSR sort gate)” value is given as “high polyreactivity”.
